Test results reported in article PMC9688808, “Discovery of Novel Lin28 Inhibitors to Suppress Cancer Cell Stemness” (Cancers, 2022).

T1: Lin28B ZKD (Homo sapiens, UniProt Q6ZN17 110-174)
T1 sequence: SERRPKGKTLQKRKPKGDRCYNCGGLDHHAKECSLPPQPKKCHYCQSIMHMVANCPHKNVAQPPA


Tests used:
[1] = target: T1, Lin28B ZKD; experiment: fluorescence polarization; 1 nM probe, 1 nM-50 uM protein; dose-dependent increase; EMSA: 20 mM HEPES-NaOH pH 7.4, 2 mM DTT, 3 mM MgCl2, 0.05% NP-40, protease inhibitors, 0.1 ug poly[dI:dC], 30 min 37 C (Methods 300 nM probe, legends 10 nM); FP: 30 uL, room temperature, 20 min, buffer not stated; details: protein: recombinant; tags: His
[2] = target: T1, Lin28B ZKD; experiment: competition; fluorescence polarization; 1 nM-50 uM unlabeled oligo vs 1 nM FAM probe, 10 uM protein; dose-dependent reduction; EMSA: 20 mM HEPES-NaOH pH 7.4, 2 mM DTT, 3 mM MgCl2, 0.05% NP-40, protease inhibitors, 0.1 ug poly[dI:dC], 30 min 37 C (Methods 300 nM probe, legends 10 nM); FP: 30 uL, room temperature, 20 min, buffer not stated; details: protein: recombinant; tags: His

Binder | binding result [1] | binding result [2]
UUAGGGCACGAGAUUUUGCCCACAAGGAGUU (structured_RNA) [FAM-Let-7 probe] | binds | 
UUAGGGCACGAGAUUUUGCCCACAAGGAGUU (structured_RNA) [non-labeled Let-7 oligo (FP competitor)] |  | binds
